Data on one substance can be found in US20100160262.

The target in the data set is enzymatically [3H] acetylated histone H3 peptide (amino acids 1-24) (UniProt P68431).

In the case of human SIRT2 with a C-terminal FLAG tag, the “standard histone deacetylase assay (radioactive, H3 peptide substrate)” value is reported as “These enzymes also deacetylate histones as determined in a standard histone deacetylase assay”.
